Six molecules from US11542537B2, “High-purity steviol glycosides” (PureCircle Sdn Bhd, priority 2012, dated 2023) can be followed below.

Common to all, as to assay type: biochemical
Data set [1] can be described thus: Catalytic test of in-vitro expressed UDP-glucosyltransferases, Rebaudioside A to Rebaudioside D (HPLC CAD). Particulars: 0.5 mM Rebaudioside A, 30° C., T24h sample; for Steviol glycoside conversion in reaction mixture: Reb A: remaining substrate; for Steviol glycoside conversion in reaction mixture: Reb UNK: Reb UNK later identified as reb D2. As for the experimental part:
18 μL of plasmid solution (containing approximately 1.5 μg of plasmid) was used for in-vitro expression according to the Promega S30 T7 High-Yield Protein Expression System (ref: L1110) kit. The expression medium was produced as follows:
The prepared expression medium mix was added to the plasmid solution and the solution was allowed to incubate at 30° C. for 3 hours while mixing the mixture every 45 minutes. 5 μL of the mixture was frozen whereas the remainder was used for the catalytic test for the conversion of Rebaudioside A to Rebaudioside D.
430 μL of a reaction mixture containing 0.5 mM Rebaudioside A, 3 mM MgCl2, 50 mM phosphate buffer (pH7.2) and 2.5 mM UDP-glucose was added to a 1.5 mL sterile microtube. 52 μL of the enzyme expression medium was added and the resulting mixture was allowed to react at 30° C. for 24 hours. 125 μL samples were taken after 2 hours, 16 hours and 24 hours and added to a 115 μL of 60% methanol and 10 μL of 2 N H2SO4. The quenched sample was centrifuged at 18,000 g for 2 minutes at RT. 200 μL was transferred to an HPLC vial and analyzed.
The HPLC assay was performed as follows:
430 μL of a reaction mixture containing 0.5 mM Rebaudioside A, 3 mM MgCl2, 50 mM phosphate buffer (pH7.2) and 2.5 mM UDP-glucose was added to a 1.5 mL sterile microtube. 52 μL of the enzyme expression medium was added and the resulting mixture was allowed to react at 30° C. for 24 hours. 125 μL samples were taken after 2 hours, 16 hours and 24 hours and added to a 115 μL of 60% methanol and 10 μL of 2 N H2SO4. The quenched sample was centrifuged at 18,000 g for 2 minutes at RT.
The HPLC assay was performed as described in EXAMPLE 20.

Data set [2] in a line: LCMS of Rubusoside conversion products with UGTSL, UGTSL2, UGTLB. Particulars: UGTSL2 2 hrs, UGTLB 5 hrs, UGTSL 45 hrs. As for the experimental part:
(§1) Conversion of stevioside with UGTSL and UGTSL2 was conducted in similar manner to Example 28, and the conversion of rubusoside with UGTSL and UGTSL2 was conducted similarly to Example 29. Conversions of rubusoside and stevioside with UGTLB was conducted similarly to Example 32.
(§2) The reaction mixtures were analyzed by LCMS to determine all reaction products.

A short description of data set [3]: Activity for Rubusoside to Rebaudioside E conversion (UGTSL, UGTSL2, UGTLB lysates). The settings on record: based on initial concentration of Rubusoside; reaction time 45 h. (UGTSL), 2 h. (UGTSL2). The protocol:
Activity tests were performed at 3 mL scale with 600 μL of lysate for the transformation of Rubusoside using 0.5 mM of substrate, 2.5 mM of UDP-Glucose and 3 mM MgCl2 in 50 mM Sodium Phosphate buffer at pH 7.2. The HPLC assay was performed as described in EXAMPLE 20.
Activity tests were performed at 3 mL scale with 600 μL of lysate for the transformation of Rubusoside using 0.5 mM of substrate, 2.5 mM of UDP-Glucose and 3 mM MgCl2 in 50 mM Sodium Phosphate buffer at pH 7.2. Samples were taken and analyzed by HPLC. The corresponding chromatogram is depicted in FIG. 65.

Data set [4] is described as follows: LCMS of Stevioside conversion products with UGTSL, UGTSL2, UGTLB. Particulars: UGTSL2 2 hrs, UGTLB 2 hrs, UGTSL 22 hrs. The protocol: as §1, §2

B1: S115N01 G2: UDP-glycosyltransferase, Avena strigosa, SEQ ID 4 (protein, listed as Avena strigosa)
chain: MAVKDEQQSPLHILLFPFLAPGHLIPIADMAALFASRGVRCTILTTPVNAAIIRSAVDRANDAFRGSDCPAIDISVVPFPDVGLPPGVENGNALTSPADRLKFFQAVAELREPFDRFLADNHPDAVVSDSFFHWSTDAAAEHGVPRLGFLGSSMFAGSCNESTLHNNPLETAADDPDALVSLPGLPHRVELRRSQMMDPKKRPDHWALLESVNAADQKSFGEVFNSFHELEPDYVEHYQTTLGRRTWLVGPVALASKDMAGRGSTSARSPDADSCLRWLDTKQPGSVVYVSFGTLIRFSPAELHELARGLDLSGKNFVWVLGRAGPDSSEWMPQGFADLITPRGDRGFIIRGWAPQMLILNHRALGGFVTHCGWNSTLESVSAGVPMVTWPRFADQFQNEKLIVEVLKVGVSIGAKDYGSGIENHDVIRGEVIAESIGKLMGSSEESDAIQRKAKDLGAEARSAVENGGSSYNDVGRLMDELMARRSSVKVGEDIIPTNDGL
On to B1, for which, in data set [1], the “Steviol glycoside conversion in reaction mixture: Reb D” value (“Steviol glycoside conversion … Reb D” below) is 0.6 % area and the “Steviol glycoside conversion in reaction mixture: Reb A” value (from here on “Steviol glycoside conversion … Reb A”) amounted to 99.4 % area.

B2: S115N06 E1: hypothetical protein OsJ_04191, Oryza sativa Japonica Group, SEQ ID 6 (protein, listed as Oryza sativa)
chain: MHVVMLPWLAFGHILPFAEFAKRVARQGHRVTLFSTPRNTRRLIDVPPSLAGRIRVVDIPLPRVEHLPEHAEATIDLPSNDLRPYLRRAYDEAFSRELSRLLQETGPSRPDWVLADYAAYWAPAAASRHGVPCAFLSLFGAAALCFFGPAETLQGRGPYAKTEPAHLTAVPEYVPFPTTVAFRGNEARELFKPSLIPDESGVSESYRFSQSIEGCQLVAVRSNQEFEPEWLELLGELYQKPVIPIGMFPPPPPQDVAGHEETLRWLDRQEPNSVVYAAFGSEVKLTAEQLQRIALGLEASELPFIWAFRAPPDAGDGDGLPGGFKERVNGRGVVCRGWVPQVKFLAHASVGGFLTHAGWNSIAEGLANGVRLVLLPLMFEQGLNARQLAEKKVAVEVARDEDDGSFAANDIVDALRRVMVGEEGDEFGVKVKELAKVFGDDEVNDRYVRDFLKCLSEYKMQRQG
Turning to B2, in data set [1], the “Steviol glycoside conversion … Reb D” value was found to be 0.14 % area, the “Steviol glycoside conversion in reaction mixture: Reb UNK” value worked out at 7.0 % area and the “Steviol glycoside conversion … Reb A” value came to 92.8 % area.

B3: UGTSL2: Solanum lycopersicum UDP-glucosyltransferase GI_460410132, SEQ ID 9, E. coli lysate (protein, listed as Escherichia coli)
chain: MATNLRVLMFPWLAYGHISPFLNIAKQLADRGFLIYLCSTRINLESIIKKIPEKYADSIHLIELQLPELPELPPHYHTTNGLPPHLNPTLHKALKMSKPNFSRILQNLKPDLLIYDVLQPWAEHVANEQNIPAGKLLTSCAAVFSYFFSFRKNPGVEFPFPAIHLPEVEKVKIREILAKEPEEGGRLDEGNKQMMLMCTSRTIEAKYIDYCTELCNWKVVPVGPPFQDLITNDADNKELIDWLGTKHENSTVFVSFGSEYFLSKEDMEEVAFALELSNVNFIWVARFPKGEERNLEDALPKGFLERIGERGRVLDKFAPQPRILNHPSTGGFISHCGWNSAMESIDFGVPIIAMPIHNDQPINAKLMVELGVAVEIVRDDDGKIHRGEIAETLKSVVTGETGEILRAKVREISKNLKSIRDEEMDAVAEELIQLCRNSNKSK
On to B3, for which, in data set [2], the “LC-MS, peak area ratio (%) Reb D” value is 6.73%; the “LC-MS, peak area ratio (%) Reb E” value is reported as 52.88%; the “LC-MS, peak area ratio (%) Rub” value stood at 3.54%; the “LC-MS, peak area ratio (%) Stev” value is reported as 2.12%. Besides, in data set [2], the “LC-MS, peak area ratio (%) Unknown peak #1 (MW804) RT 30.70 min” value is on record as 12.02%; the “LC-MS, peak area ratio (%) Unknown peak #2 (MW804) RT 49.50 min” value turned out to be 9.94%; the “LC-MS, peak area ratio (%) Unknown peak #3 (MW804) RT 50.40 min” value worked out at 12.77%. Besides, the “Rubusoside conv. (reactiontime)” value in data set [3] is 80% (2 h.). For the same molecule, in data set [4], the “LC-MS, peak area ratio (%) Reb D” value stood at 1.70%; the “LC-MS, peak area ratio (%) Reb E” value is reported as 42.56%; the “LC-MS, peak area ratio (%) Stev” value is listed as 20.01%; the “LC-MS, peak area ratio (%) Unknown peak #1 (MW966) RT = 22.60 min” value is 4.48%. In data set [4], the “LC-MS, peak area ratio (%) Unknown peak #2 (MW966) RT = 26.50 min” value is 5.56% and the “LC-MS, peak area ratio (%) Unknown peak #3 (MW966) RT = 29.50 min” value came to 25.70%.

B4: UGTLB: Lycium barbarum UDP-glucosyltransferase GI_209954733, SEQ ID 10, E. coli lysate (protein, listed as Escherichia coli)
chain: MGTEVTVHKNTLRVLMFPWLAYGHISPFLNVAKKLVDRGFLIYLCSTAINLKSTIKKIPEKYSDSIQLIELHLPELPELPPHYHTTNGLPPHLNHTLQKALKMSKPNFSKILQNLKPDLVIYDLLQQWAEGVANEQNIPAVKLLTSGAAVLSYFFNLVKKPGVEFPFPAIYLRKNELEKMSELLAQSAKDKEPDGVDPFADGNMQVMLMSTSRIIEAKYIDYFSGLSNWKVVPVGPPVQDPIADDADEMELIDWLGKKDENSTVFVSFGSEYFLSKEDREEIAFGLELSNVNFIWVARFPKGEEQNLEDALPKGFLERIGDRGRVLDKFAPQPRILNHPSTGGFISHCGWNSVMESVDFGVPIIAMPIHLDQPMNARLIVELGVAVEIVRDDYGKIHREEIAEILKDVIAGKSGENLKAKMRDISKNLKSIRDEEMDTAAEELIQLCKNSPKLK
On to B4, for which, in data set [2], the “LC-MS, peak area ratio (%) Reb D” value came out at 1.29%; the “LC-MS, peak area ratio (%) Reb E” value was 9.21%; the “LC-MS, peak area ratio (%) Rub” value is 13.49%; the “LC-MS, peak area ratio (%) Unknown peak #1 (MW804) RT 30.70 min” value worked out at 4.07%. In addition, in data set [2], the “LC-MS, peak area ratio (%) Unknown peak #2 (MW804) RT 49.50 min” value came out at 66.67% and the “LC-MS, peak area ratio (%) Unknown peak #3 (MW804) RT 50.40 min” value is 5.27%. In data set [4], the “LC-MS, peak area ratio (%) Reb E” value is given as 3.12%; the “LC-MS, peak area ratio (%) Stev” value turned out to be 43.11%; the “LC-MS, peak area ratio (%) Unknown peak #2 (MW966) RT = 26.50 min” value is on record as 53.78%.

B5: S115N01 A1: UDP-glucosyltransferase Os03g0702500, Oryza sativa Japonica Group, SEQ ID 3 (protein, listed as Oryza sativa)
chain: MDDAHSSQSPLHVVIFPWLAFGHLLPCLDLAERLAARGHRVSFVSTPRNLARLPPVRPELAELVDLVALPLPRVDGLPDGAEATSDVPFDKFELHRKAFDGLAAPFSAFLDTACAGGKRPDWVLADLMHHWVALASQERGVPCAMILPCSAAVVASSAPPTESSADQREAIVRSMGTAAPSFEAKRATEEFATEGASGVSIMTRYSLTLQRSKLVAMRSCPELEPGAFTILTRFYGKPVVPFGLLPPRPDGARGVSKNGKHDAIMQWLDAQPAKSVVYVALGSEAPMSADLLRELAHGLDLAGTRFLWAMRKPAGVDADSVLPAGFLGRTGERGLVTTRWAPQVSILAHAAVCAFLTHCGWGSVVEGLQFGHPLIMLPILGDQGPNARILEGRKLGVAVPRNDEDGSFDRGGVAGAVRAVVVEEEGKTFFANARKLQEIVADREREERCIDEFVQHLTSWNELKNNSDGQYP
Turning to B5, in data set [1], the “Steviol glycoside conversion … Reb D” value worked out at 2.1 % area and the “Steviol glycoside conversion … Reb A” value is 96.7 % area.

B6: S115N06 C2: UDP-glucoronosyl/UDP-glucosyl transferase family protein, Arabidopsis lyrata subsp. lyrata, SEQ ID 7 (protein, listed as Arabidopsis lyrata)
chain: MDDKKEEVMHIAMFPWLAMGHLLPFLRLSKLLAQKGHKISFISTPRNILRLPKLPSNLSSSITFVSFPLPSISGLPPSSESSMDVPYNKQQSLKAAFDLLQPPLTEFLRLSSPDWIIYDYASHWLPSIAKELGISKAFFSLFNAATLCFMGPSSSLIEESRSTPEDFTVVPPWVPFKSTIVFRYHEVSRYVEKTDEDVTGVSDSVRFGYTIDGSDAVFVRSCPEFEPEWFSLLQDLYRKPVFPIGFLPPVIEDDDDDTTWVRIKEWLDKQRVNSVVYVSLGTEASLRREELTELALGLEKSETPFFWVLRNEPQIPDGFEERVKGRGMVHVGWVPQVKILSHESVGGFLTHCGWNSVVEGIGFGKVPIFLPVLNEQGLNTRLLQGKGLGVEVLRDERDGSFGSDSVADSVRLVMIDDAGEEIREKVKLMKGLFGNMDENIRYVDELVGFMRNDESSQLKEEEEEDDCSDDQSSEVSSETDEKELNLDLKEEKRRISVYKSLSSEFDDYVANEKMG
For B6, in data set [1], the “Steviol glycoside conversion … Reb D” value came to 0.28 % area, the “Steviol glycoside conversion in reaction mixture: Reb UNK” value worked out at 3.9 % area and the “Steviol glycoside conversion … Reb A” value is 95.8 % area.
